Reference: patent US20240245805A1 (Orna Therapeutics, Inc., priority 2020, published 2024)

B1: Hubei tombus-like virus 9 (nucleic acid)
DNA: GGACCATCCAGGCAGGTGTAGGCTAGTACCCTCACCTGACCTGTCGCGATGTTTGGCTTTGTGAGGCTTGTGGGAGGATCCCTTGGCCCATGCATTGCTGCTGTCATCGTGAAAAATGTTGTATGCTCGCACCTGGCGTGGAGGAAACGGCATTTGACGGATGCTAAGGAGGATTTGAAGGTCCTCAACTCCCATGCCTTATTACAAGTCCCCTTTCCTTCAAGCTTCGAGCCCACGTCTGTGACGAGCAGAGGTGAGGTTGGAGTCAAGAGGAGTCCTATTCAAGCTGTTCGCAGCAAGAACCATAAAACTTTCATTGCTCAATGGGCAAGAGCGGCTAAGGCTCGGTTCTCGTTTGCACGACAGTGTGAGCGGAGCCCTGTAAATGTCGCGGCCCTTCATCGGTGGTTTGCATCGGAGTTTAAGAAAATTGGCATGAACTTGCTCCAGGTTTCGTACGTGATCGATGAGGTTGTTGAACTTAGTTTGGAACCAACGTATGAGCGTATGGTGTCCGAAACTAAGAAGCAATTCCGTCATCGGGCACGTATGGAATACTACAACGAGAAAAAATGCCTTGAAAAGATCCACTAGGAACGC
modifications: source: /note="Description of Unknown: Hubei tombus-like virus 9 sequence"
B2: Harrier picornavirus 1 (nucleic acid)
DNA: GATGTGTGACGGTGTAATTACTTTCCGGATCCCACTTTCCTATTATAACTCTTTCATCCCAAGGTTAGGGAAAGAACCTGGCTCGGTACCACCAGACCCTCCGCCACGCTAGTGGACTCTCCGGAGATAACGGTACCCCCTTTGTAGTCACCTGTGCTGGTGAAGAACCACCTAGTATTGCTTGGGTGCGTGCCGCCTAGCTTCCATTTCTTCTGGAGCACTGTGCAATGAGGTTTCCCCACTTGGTAACAAGTGCCTCAGGTCCCGCAAGGATACTGTGGGGTGGTGTGACCGCAGGGAGCTGTCTCCACGGCTCCTCTAATGTTACGCCGCTATCCACAGGCCAGTGCGTGTCATCGATCCCGGATGACAGAGCTAGTATTGCGAACCCCCAAGTAAGAAAAGTGGCTAGTAACCTGATAGCTGGTGAAGAGGGTGGGTCAGTTGAGTAGATGCCCTAGAGGTACCCGAAAGGATCTGACTAGGGACCCGTGACTATACATTAGGTAAACCGGGTATAAAAACCATGAAAAACTGACCACTTTTCTTTTAACCTCTTCTTTCTTTTTATGTGTGTTAAGTGTTTTGAGTTTGGACTGTACCTTGCCCGCCTTTCTTGGATTTTCTCTATCGCTCTTCTTACACCTACTGTTATCAAGGCACTCTTTAGAGATA
modifications: source: /note="Description of Unknown: Harrier picornavirus 1 sequence"
B3: Hubei picorna-like virus 2 (nucleic acid)
DNA: AGCAACTTCTTTCTGAAAACTAGCTAGAGTTCGACGATCTCTCTGGCTAATGACAAATAACCAATCAAAAAGTCAAATGTTCATGTATATATATATTTAGTAGTGACCTTTATTTAGAAAAACTTTAGATGATTTATCGTCAAGTTGCCCTTTGTGAAGCGATCAGCTTTTTATATCGTTTCATTTTTGTATACGTCTTAATTGACGTTGTAAGTACGTTTTGCATACCTCACATTGAGGATAGTATCGTTTCCTGACTAAGAAGTTAAACTAGTCTACCAATAGCAACCATATAGGATATAGCTTTGTTTTTAACAAGGTTTAATCTGATCTTATGCTCTTGCTTACGGTGTTTTATGTATAGAAAAGTTTTTATAAAAACTACATAATTGTCAAAAGAAAAAGCGTTACGTACTGACGCATTTATGTTCACAGTGTGACACAAACCTTCTATATTTTGATTGTAAAATAGGCTTTGCCTGACCATTTATCAAATACAAACTGTTTCAAACGCCTCTCCGAGCCATATTGGCCGACGCGAATCGACATAACAGGGTGAGTTTACAGCTGCAGTTGCAGCCGAGGATCCACTTATTTGAGAGAGAATTACTCTTAACGAAATTTTGAAGTCACTTCTACACAGTTAAGTCTGAGTAGGCGTTATCCAAACGTAAA
modifications: source: /note="Description of Unknown: Hubei picorna-like virus 2 sequence"
B4: Hubei sobemo-like virus 3 (nucleic acid)
DNA: GAGATGTTTGCGTGGGCCGTTGCGCTGCGGGCGGCCCACCTCCCTACGGGGACCGTGAGACACCGCTGGGGAAGGCCCCCACCCCCGGCCAAGGGGATCCTGCCGAGAGGCAGGAGAAAGAGGCCCAGCCCTCTGGGGCGCCTTTAGGGGTGCCTGGGAGGGAAGTACCCGAGCCGGGCGGCCGGTCGGGTGCGGCTGTGCAGTTCGAGGCTAACCGTAAGGAAGGCCTGAGCTGCCTCGGCTTGTCGGAAAGGAAGACGAAGGCACTTATCAAGGCTTTCAGGAAGCAGGAGCGCAATTACAGCGCGCGCCGTGCGGCCTGGATTAACCGCATTTGGCCG
modifications: source: /note="Description of Unknown: Hubei sobemo-like virus 3 sequence"
B5: Kashmir bee virus: "an IRES is an IRES sequence of ... Kashmir bee virus" (nucleic acid)
DNA: TACGTACAATTTTGACGCTTCGTTCATGCAACAATGAACTCACATGTGGCGCTCGGTAGTAACCAGAGGGGCGTCATTCCCCCGTATGGAGTGGAGAATATAAGCTACCGACTCGAGCTGTAGAATAATTCAGCAACTTATAACGAACACGAATTTTAGTCGACGAAACCATTTTAGCCTTTAATTCTATGATTTGATTATAATGATAAACAGCTCATGTAACTGTCTAAACTACATAAATACAACTGGATTACGAACCTTTAAGTAACTATCTTAGATGAAGTCTAGTAGTCTCCCAATATTTCCGTGAAAAGAATGAGGGACGAGATAGCTCTATTTAAAGACGTGAGGCTTTAAATTCTGATAAATACATTACCTGAGAATTCCTCCTTTAGGAGTTAGAATTTGAAAAGATTAGTACCTATACTTAATAGAATTTAAATATGTTAATAATGCTGAAGACAAGTATTTCGATTATTAACCTCTATATTTCTATATAAAGTATCTGTGAGTCTCAGTGGACATCACAGTAAGGTCGCAGTTAACTTGTAATCTTTTCATTCCTGTGTCGGAGCAGTGGTAATGGAGCCGGACGATTTCGCCAAAAC
modifications: Kashmir bee virus
B6: Hepacivirus P (nucleic acid, listed as Hepacivirus sp.)
DNA: ACATGGGGGGGGGCTGACAGTGAGTACACTGTGCCAAGCAGGTGCTACGCTATGCCTAGGTGCTGCTGTAGGCCAAGGACATGTCCCAGTCATCCCAGGTGAGGGGGGGGGTTCCCCTCACCGCTGCCACTGCCTGATAGGGTCCTGCCGGAGGGTCTCGGTGTCCGGCTGTAC
B7: Hubei tombus-like virus 32 (nucleic acid)
DNA: TTCGGGTTTACCCGCGTAAGCGGCCACACTGACTGGTTGTCGGTGTTGAATTTGTATACCAGATGAGGAGACGTTACCACCGTCTCGGCAGTGCTACGTCTGGGAAAGGACTGTGATAGTGGACAGTCCTACCGTCTTTAGATACATTGCGTTGTGTATAGCCCGGGAGGGATTAACTAATAGCAACGCAATGCACACGGCGGTTCGGATTTGCTTGACTGATGGAAAGACATCTAAGTTCTAATTGAACC
modifications: source: /note="Description of Unknown: Hubei tombus-like virus 32 sequence"

test system: HEK293 cells; format: cell-based, human; conditions: circular RNA encoding Gluc with the listed IRES (UTR truncated to 675 nt) transfected into HEK293 cells; supernatant after 24 hours

Molecule | Expression (luminescence from secreted Gluc protein)
B1 | 9.28E+04
B2 | 1.47E+05
B3 | 1.95E+05
B4 | 1.17E+05
B5 | 1.65E+05
B6 | 6.04E+05
B7 | 9.23E+04
